Laboratory results taken from patent publication US20220031841A1 (ABSCI, published 2022).

Key:
[1] = target: T1, O-linked N-acetylglucosamine (GlcNAc) transferase (OGT) (human, UniProt O15294 2-1046); assay: HuProt protein array, antibody at 1 µg/ml, Alexa-647 anti-human IgG Fc; F635 signal as z-score; OGT replicate 1
T1 construct: The array carries full-length recombinant human proteins expressed in S. cerevisiae; also called Human OGT
T1 sequence: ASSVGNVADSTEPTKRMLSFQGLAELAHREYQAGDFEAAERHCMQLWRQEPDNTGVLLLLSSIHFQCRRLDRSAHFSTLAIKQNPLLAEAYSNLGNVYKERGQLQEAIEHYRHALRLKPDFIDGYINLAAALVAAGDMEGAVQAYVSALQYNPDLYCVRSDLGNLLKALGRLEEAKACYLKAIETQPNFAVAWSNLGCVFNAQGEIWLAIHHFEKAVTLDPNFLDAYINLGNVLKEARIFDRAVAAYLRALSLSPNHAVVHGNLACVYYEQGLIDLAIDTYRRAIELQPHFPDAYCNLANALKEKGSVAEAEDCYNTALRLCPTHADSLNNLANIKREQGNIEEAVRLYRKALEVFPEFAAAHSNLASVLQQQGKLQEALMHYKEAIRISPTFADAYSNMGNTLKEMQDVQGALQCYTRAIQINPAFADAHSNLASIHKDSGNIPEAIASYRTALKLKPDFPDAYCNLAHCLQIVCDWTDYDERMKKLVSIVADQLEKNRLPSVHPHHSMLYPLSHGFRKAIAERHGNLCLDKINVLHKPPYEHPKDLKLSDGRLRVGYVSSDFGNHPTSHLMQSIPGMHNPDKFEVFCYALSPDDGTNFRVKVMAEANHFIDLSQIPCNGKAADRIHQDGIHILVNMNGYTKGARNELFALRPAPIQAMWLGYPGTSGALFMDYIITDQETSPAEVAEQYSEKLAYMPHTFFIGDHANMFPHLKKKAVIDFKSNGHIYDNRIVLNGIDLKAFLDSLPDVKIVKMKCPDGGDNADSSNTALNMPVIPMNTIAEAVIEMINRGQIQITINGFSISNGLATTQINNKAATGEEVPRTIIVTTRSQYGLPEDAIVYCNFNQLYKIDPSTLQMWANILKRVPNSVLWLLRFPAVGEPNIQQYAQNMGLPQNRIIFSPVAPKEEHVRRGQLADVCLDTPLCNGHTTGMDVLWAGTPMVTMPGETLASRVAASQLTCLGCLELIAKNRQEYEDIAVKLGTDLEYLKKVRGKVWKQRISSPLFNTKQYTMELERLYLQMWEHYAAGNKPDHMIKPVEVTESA
Description: (§1) Large scale protein arrays are versatile and sensitive platforms for antibody specificity evaluation. They can be used for the evaluation of protein binding or affinity reagents that are widely employed in research and clinical applications. The microarray used in our target identification experiment provides the largest number of unique, full-length, individually purified human proteins on a single microscope slide. This allows thousands of interactions to be profiled in a high-throughput manner. The hill-length recombinant proteins are expressed in the yeast S. cerevisiae, purified, and printed on glass slides in duplicate along with a set of control proteins (GST, BSA, histones, IgG, etc.). Such microarray is not restricted to a particular type of surface coating, although the default is glass coated with ultra-thin nitrocellulose film for the non-covalent, yet irreversible, capture of active proteins to the surface. Fourteen Protein arrays were used for the antibody cross-reactivity assay of the samples. […] The antibody-antigen binding score was calculated for each protein represented on the array and expressed as z-scores. […]
(§2) Z score is the average Z score of the duplicate spots of a given protein (each protein is printed in duplicate on a HuProt™ array). The Z score of each spot on a given array is calculated according to the equation: […]

[2] = target: T2, Kinesin light chain 4 protein (KLC4) (human, UniProt Q9NSK0 2-619); assay: HuProt protein array, F635 z-score
T2 construct: The array carries full-length recombinant human proteins expressed in S. cerevisiae; also called Human KLC4
Outline: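 Full-length human proteins expressed in S. cerevisiae, purified and printed in duplicate on nitrocellulose-coated glass were probed with test antibodies at 1 μg/ml for 1 h at room temperature. Bound IgG was detected with Alexa-647 anti-human IgG Fc gamma secondary; Z-score is the mean of duplicate spots.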

[3] = target: T3, Melanoma-associated antigen 3 (MAGE-A3) (human, UniProt P43357 1-314); assay: HuProt protein array, antibody at 1 µg/ml, Alexa-647 anti-human IgG Fc; F635 signal as z-score; MAGEA3 replicate 1
T3 construct: The array carries full-length recombinant human proteins expressed in S. cerevisiae; also called Human MAGE-A3
Description: as §1, §2

T2 sequence (Q9NSK0 2-619 limits assumed): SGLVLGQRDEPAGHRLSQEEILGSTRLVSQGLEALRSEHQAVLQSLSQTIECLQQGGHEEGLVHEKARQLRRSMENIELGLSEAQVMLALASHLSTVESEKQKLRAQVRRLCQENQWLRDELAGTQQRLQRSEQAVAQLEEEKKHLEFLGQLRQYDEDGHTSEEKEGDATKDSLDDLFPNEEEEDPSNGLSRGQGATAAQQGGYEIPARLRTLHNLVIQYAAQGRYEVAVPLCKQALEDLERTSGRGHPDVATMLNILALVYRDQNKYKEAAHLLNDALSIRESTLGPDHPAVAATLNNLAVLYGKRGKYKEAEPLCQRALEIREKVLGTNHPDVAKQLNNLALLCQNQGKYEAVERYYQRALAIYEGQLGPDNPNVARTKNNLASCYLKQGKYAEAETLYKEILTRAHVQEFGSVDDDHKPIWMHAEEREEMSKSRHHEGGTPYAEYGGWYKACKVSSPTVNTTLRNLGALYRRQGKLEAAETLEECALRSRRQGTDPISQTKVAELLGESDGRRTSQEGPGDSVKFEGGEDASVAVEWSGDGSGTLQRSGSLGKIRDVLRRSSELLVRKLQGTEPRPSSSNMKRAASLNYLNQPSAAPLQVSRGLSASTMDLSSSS
T3 sequence (P43357 whole entry): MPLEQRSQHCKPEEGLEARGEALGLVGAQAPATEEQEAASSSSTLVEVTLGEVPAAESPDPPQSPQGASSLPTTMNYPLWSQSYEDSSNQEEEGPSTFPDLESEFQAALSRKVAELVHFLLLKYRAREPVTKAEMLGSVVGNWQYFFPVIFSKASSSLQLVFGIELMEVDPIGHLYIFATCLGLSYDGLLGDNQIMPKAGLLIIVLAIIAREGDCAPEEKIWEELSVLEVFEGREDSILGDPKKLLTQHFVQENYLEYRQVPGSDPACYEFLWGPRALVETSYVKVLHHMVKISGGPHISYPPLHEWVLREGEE

B1: TMEL1014 (antibody, V domains shown)
VH: SVQLVESGGGVVQPGRSLRLSCAASGFTFSSYTMHWVRQAPGKGLEWVALISYDGSNKYYADSVKGRFTISRDNPKNTLYLQMNSLRVEDTAVYYCARDWTLGYWGQGTLVTVSS
VL: VSSELTQDPAVSVALGQTVRITCQGDSLRNYYANWYQQKPGQAPILVIYDKNNRPSGIPDRFSGSSSGNTASLTITGAQAEDEADYYCNSRDSSGYHLVFGGGTKLTVLG
notes: It was detected with an anti-human IgG Fc gamma secondary antibody
[1]
  binding result: binds

B2: TMEL1013 (antibody, V domains shown)
VH: PVQLVQSGAEVKKPGSSVKVSCKASGGTFSSYTINWVRQAPGQGLEWMGRIIPILGVANYAQKFQGRVTITADKSTSTAYMDLSSLRSEDTAVYYCAREWERAFDYWGQGTLVTVSS
VL: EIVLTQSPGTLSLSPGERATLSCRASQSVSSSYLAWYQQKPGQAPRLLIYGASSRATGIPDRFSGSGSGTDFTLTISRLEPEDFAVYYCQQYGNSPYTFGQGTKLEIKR
[2]
  binding result: no binding (tested: 1 µg/ml)

B3: TMEL1008 (antibody, V domains shown)
VH: QVQLVQSGAEVKKPGSSVKVSCKASGGTFNRDGIIWVRQAPGQGLEWMGRIIPILGIANYAQKFQGRVTIIADKSTSTAYMELSSLRSEDTAVYYCARESEVGRGMDVWGQGTTVTVSS
VL: ASALTQPASVSGSPGQSITISCTGTSSDVGDYNYVSWYQQHPGKAPKLMIYDVSNRPSGVSHRFSGSKSGNTASLTISGLQAEDEADYYCSSYTISSTLGVFGPGTKVTVLG
notes: as for B1
[3]
  binding result: binds
